The data set addresses His-hQTRT1 (catalytic subunit of human TGT);StrepII-hQTRT2 (noncatalytic subunit) (human;human, UniProt Q9BXR0;Q9H974 1-403;1-415, |). Briefly: denaturing EMSA of covalent intermediate; 9-deazaguanine; RBT buffer: 50 mM Tris-HCl pH 7.5, 20 mM NaCl, 5 mM MgCl2, 2 mM DTT, 37 C, 1-1.5 h, with 9-deazaguanine (25-50 uM); capture-release with poly(U) and ArgSL competitors, urea and guanidine washes. Particulars: protein: recombinant;recombinant; tags: N-terminal His;N-terminal StrepII-SUMO; copies: 1;1; hairpin.

His-hQTRT1 (catalytic subunit of human TGT);StrepII-hQTRT2 (noncatalytic subunit), sequence (Q9BXR0 whole entry, chain 1 of 2): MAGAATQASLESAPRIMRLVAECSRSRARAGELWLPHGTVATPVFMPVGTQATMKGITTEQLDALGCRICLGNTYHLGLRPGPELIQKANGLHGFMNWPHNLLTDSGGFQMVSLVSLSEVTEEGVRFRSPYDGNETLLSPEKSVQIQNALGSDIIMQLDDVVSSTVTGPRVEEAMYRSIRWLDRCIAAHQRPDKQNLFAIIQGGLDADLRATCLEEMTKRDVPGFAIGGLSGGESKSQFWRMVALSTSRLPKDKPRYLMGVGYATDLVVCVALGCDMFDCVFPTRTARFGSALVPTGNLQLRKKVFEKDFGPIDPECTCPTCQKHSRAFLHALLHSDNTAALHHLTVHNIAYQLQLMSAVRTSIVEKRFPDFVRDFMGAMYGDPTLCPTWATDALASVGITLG
His-hQTRT1 (catalytic subunit of human TGT);StrepII-hQTRT2 (noncatalytic subunit), sequence (Q9H974 whole entry, chain 2 of 2): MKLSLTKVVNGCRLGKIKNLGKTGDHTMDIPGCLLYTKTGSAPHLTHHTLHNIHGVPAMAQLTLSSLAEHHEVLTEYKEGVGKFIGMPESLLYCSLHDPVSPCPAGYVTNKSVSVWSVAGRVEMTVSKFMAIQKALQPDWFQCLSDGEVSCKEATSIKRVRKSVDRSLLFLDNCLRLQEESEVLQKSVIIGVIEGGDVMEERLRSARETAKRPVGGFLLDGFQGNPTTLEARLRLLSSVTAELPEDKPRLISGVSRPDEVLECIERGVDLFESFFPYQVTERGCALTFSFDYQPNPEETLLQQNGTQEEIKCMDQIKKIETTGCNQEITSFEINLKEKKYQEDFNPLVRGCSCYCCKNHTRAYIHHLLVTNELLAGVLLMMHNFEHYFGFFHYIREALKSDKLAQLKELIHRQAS

As to CCCCGCCUGUCACGCGGGA (structured_RNA) [Aspartyl anticodon stem loop (AspSL)], the binding result is on record as “binds”.
Consider ACUGGCCUCCUAAGCCAGG (structured_RNA) [Arginyl anticodon stem loop (ArgSL)], for which the binding result was “no binding”.

For the origin of these results see publication PMC8136771, “The human tRNA-guanine transglycosylase displays promiscuous nucleobase preference but strict tRNA specificity”.
